The record followed here is paper PMC3539201.

This assay deals with MBP-torsinAΔE (human) (UniProt O14656). As to the kind of experiment: pull-down.

B1: nesprin-3α (endogenous, mouse fibroblasts) (natural protein)
chain: MTQQPQEDFERSVEDAQAWMKVIQEQLQVNDNTKGPRAALEARLRETEKICQLESEGMVKVELVLRAAEALLATCQEGQKPEILARLRDIKSQWEETVTYMTHCHSRIEWVWLHWSEYLLAQDEFYRWFQKMVVALEPPVELQLGLKEKQWQLSHAQVLLHNVDNQAVLLDRLLEEAGSLFSRIGDPSVDEDAQKRMKAEYDAVKARAQRRVDLLAQVAQDHEQYREDVNEFQLWLKAVVEKVHSCLGRNCKLATELRLSTLQDIAKDFPRGEESLKRLEEQAVGVIQNTSPLGAEKISGELEEMRGVLEKLRVLWKEEEGRLRGLLQSRGDCEQQIQQLEAELGDFKKSLQRLAQEGLEPTVKTATEDELVAQWRLFSGTRAALASEEPRVDRLQTQLKKLVTFPDLQSLSDSVVATIQEYQSMKGKNTRLHNATRAELWQRFQRPLNDLQLWKALAQRLLDITASLPDLASIHTFLPQIEAALTESSRLKEQLAMLQLKTDLLGSIFGQERAATLLEQVTSSVRDRDLLHNSLLQRKSKLQSLLVQHKDFGVAFDPLNRKLLDLQARIQAEKGLPRDLPGKQVQLLRLQGLQEEGLDLGTQIEAVRPLAHGNSKHQQKVDQISCDQQALQRSLEDLVDRCQQNVREHCTFSHRLSELQLWITMATQTLESHQGDVRLWDAESQEAGLETLLSEIPEKEVQVSLLQALGQLVMKKSSPEGATMVQEELRKLMESWQALRLLEENMLSLMRNQQLQRTEVDTGKKQVFTNNIPKAGFLINPQDPIPRRQHGANPLEGHDLPEDHPQLLRDFEQWLQAENSKLRRIITMRVATAKDLRTREVKLQELEARIPEGQHLFENLLRLRPARDPSNELEDLRYRWMLYKSKLKDSGHLLTESSPGELTAFQKSRRQKRWSPCSLLQKACRVALPLQLLLLLFLLLLFLLPAGEEERSCALANNFARSFALMLRYNGPPPT
As to B1, the fold nesprin-3α pulled down relative to MBP-torsinA was 3 fold.
